Assay results reported in the supplement of paper PMC7125110.
± gives the standard error. For part of these data: This sample holds only a part of the variants without activity.

B1: glmS ribozyme (parent)
chain: AUAAAAGCGCCAGAACUACAGAAAUGUAGUUGACGAGGAGGAGGUUUAUCGAAUUUUCGGCGGAUGCCUCCAAA

How the values were obtained:
Details in all cases: with glucosamine-6-phosphate
glucosamine-6-phosphate [1] = variants of: B1; test: kcat; higher = faster cleavage; RNA array
Outline: (§1)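 Tiles bearing barcoded ribozyme variants, transcribed in situ by E. coli RNA polymerase on sequenced MiSeq chips, were imaged over ~14 h at 37 °C using a hybridised Cy3 probe. Glucosamine-6-phosphate was supplied at 40 μM to 10 mM in HEPES/KCl/Mg(OAc)2 buffer. kobs came from one- or two-exponential decay fits to normalised per-tile medians, and weighted Michaelis–Menten fits then provided kcat and KM.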

glucosamine-6-phosphate [2] = variants of: B1; test: self-cleavage kobs at 640 uM GlcN6P; higher = faster cleavage; RNA array
Outline: as §1

glucosamine-6-phosphate [3] = variants of: B1; test: self-cleavage kobs at 2500 uM GlcN6P; higher = faster cleavage; RNA array
Outline: as §1

glucosamine-6-phosphate [4] = variants of: B1; test: self-cleavage kobs at 10000 uM GlcN6P; higher = faster cleavage; RNA array
Outline: as §1

glucosamine-6-phosphate [5] = variants of: B1; test: KM; higher = weaker cofactor use; RNA array
Outline: as §1

glucosamine-6-phosphate [6] = variants of: B1; test: self-cleavage kobs at 40 uM GlcN6P; higher = faster cleavage; RNA array
Outline: as §1

glucosamine-6-phosphate [7] = variants of: B1; test: self-cleavage kobs at 160 uM GlcN6P; higher = faster cleavage; RNA array
Outline: as §1

Which results are given for G40A G41C?
kcat (glucosamine-6-phosphate [1]): 0.000139 ± 2e-05 s⁻¹; self-cleavage kobs at 640 uM GlcN6P (glucosamine-6-phosphate [2]): 4.87e-05 ± 1.8e-05 s⁻¹; self-cleavage kobs at 2500 uM GlcN6P (glucosamine-6-phosphate [3]): 0.000179 ± 4.9e-05 s⁻¹; self-cleavage kobs at 10000 uM GlcN6P (glucosamine-6-phosphate [4]): 0.000123 ± 1.4e-05 s⁻¹

For G32A A39C, which kcat (glucosamine-6-phosphate [1]) is on record?
Its kcat is 0.00032 ± 6.8e-05 s⁻¹.

What about the KM (glucosamine-6-phosphate [5]) of the same variant?
The KM was 3190 ± 1300 µM.

And the “self-cleavage kobs at 640 uM GlcN6P” value (glucosamine-6-phosphate [2])?
Its value is 6.63e-05 ± 1.2e-05 s⁻¹.

What about the “self-cleavage kobs at 2500 uM GlcN6P” value (glucosamine-6-phosphate [3]) of the same variant?
The value was 0.000114 ± 2.1e-05 s⁻¹.

And the “self-cleavage kobs at 10000 uM GlcN6P” value (glucosamine-6-phosphate [4])?
Its value is 0.000259 ± 3.2e-05 s⁻¹.

Which results are given for G43U C70U?
kcat (glucosamine-6-phosphate [1]): 2.12e-05 ± 3.3e-06 s⁻¹; self-cleavage kobs at 40 uM GlcN6P (glucosamine-6-phosphate [6]): < 1e-05 s⁻¹; self-cleavage kobs at 160 uM GlcN6P (glucosamine-6-phosphate [7]): < 1e-05 s⁻¹; self-cleavage kobs at 2500 uM GlcN6P (glucosamine-6-phosphate [3]): 2.17e-05 ± 8.6e-06 s⁻¹

G29C U49G was tested. Which kcat (glucosamine-6-phosphate [1]) did it give?
Its kcat is 1.82e-05 ± 5.3e-06 s⁻¹.

What about the “self-cleavage kobs at 40 uM GlcN6P” value (glucosamine-6-phosphate [6]) of the same variant?
The value was less than 1e-05 s⁻¹.

Which results are given for U47G C67G?
kcat (glucosamine-6-phosphate [1]): 0.000689 ± 0.00022 s⁻¹; self-cleavage kobs at 40 uM GlcN6P (glucosamine-6-phosphate [6]): 7.66e-05 ± 1.4e-05 s⁻¹; self-cleavage kobs at 160 uM GlcN6P (glucosamine-6-phosphate [7]): 0.000105 ± 1.9e-05 s⁻¹; self-cleavage kobs at 640 uM GlcN6P (glucosamine-6-phosphate [2]): 0.000248 ± 2.3e-05 s⁻¹; self-cleavage kobs at 2500 uM GlcN6P (glucosamine-6-phosphate [3]): 0.000429 ± 5.2e-05 s⁻¹; self-cleavage kobs at 10000 uM GlcN6P (glucosamine-6-phosphate [4]): 0.000816 ± 9.6e-05 s⁻¹

What does the source list for C10A G51U G63C?
kcat (glucosamine-6-phosphate [1]): 1.02e-05 ± 4.6e-07 s⁻¹; KM (glucosamine-6-phosphate [5]): 731 ± 360 µM; self-cleavage kobs at 2500 uM GlcN6P (glucosamine-6-phosphate [3]): < 1e-05 s⁻¹

With G32C A39U as the variant, how does the kcat (glucosamine-6-phosphate [1]) read?
The kcat was 6.89e-05 ± 3.3e-06 s⁻¹.

And the KM (glucosamine-6-phosphate [5])?
Its KM is 9270 ± 880 µM.

And the “self-cleavage kobs at 10000 uM GlcN6P” value (glucosamine-6-phosphate [4])?
The value was 3.58e-05 ± 6.1e-06 s⁻¹.

Which results are given for A6C U56A?
kcat (glucosamine-6-phosphate [1]): 4.08e-05 ± 9.7e-06 s⁻¹; self-cleavage kobs at 10000 uM GlcN6P (glucosamine-6-phosphate [4]): 3.34e-05 ± 7.8e-06 s⁻¹

Which kcat (glucosamine-6-phosphate [1]) does the source give for C11A C16U here?
Its kcat is 0.000159 ± 1.5e-05 s⁻¹.

And the KM (glucosamine-6-phosphate [5])?
Its KM is 1110 ± 340 µM.

What about the “self-cleavage kobs at 640 uM GlcN6P” value (glucosamine-6-phosphate [2]) of the same variant?
The value was 6.65e-05 ± 1.5e-05 s⁻¹.

What about the “self-cleavage kobs at 2500 uM GlcN6P” value (glucosamine-6-phosphate [3]) of the same variant?
Its value is 9.79e-05 ± 1.5e-05 s⁻¹.

And the “self-cleavage kobs at 10000 uM GlcN6P” value (glucosamine-6-phosphate [4])?
Its value is 0.000151 ± 1.8e-05 s⁻¹.

G37U C58U was tested. Which kcat (glucosamine-6-phosphate [1]) did it give?
Its kcat is less than 1e-05 s⁻¹.

What about the “self-cleavage kobs at 10000 uM GlcN6P” value (glucosamine-6-phosphate [4]) of the same variant?
The value was less than 1e-05 s⁻¹.

With A53C C68G as the variant, how does the kcat (glucosamine-6-phosphate [1]) read?
Its kcat is less than 1e-05 s⁻¹.

Which results are given for C11U G40A?
kcat (glucosamine-6-phosphate [1]): 0.000548 ± 0.00025 s⁻¹; self-cleavage kobs at 640 uM GlcN6P (glucosamine-6-phosphate [2]): 8.42e-05 ± 2.2e-05 s⁻¹; self-cleavage kobs at 2500 uM GlcN6P (glucosamine-6-phosphate [3]): 0.000128 ± 3e-05 s⁻¹; self-cleavage kobs at 10000 uM GlcN6P (glucosamine-6-phosphate [4]): 0.000374 ± 6.8e-05 s⁻¹

For U46G U54A, which kcat (glucosamine-6-phosphate [1]) is on record?
The kcat was 0.00945 ± 0.0015 s⁻¹.

And the KM (glucosamine-6-phosphate [5])?
The KM was 2450 ± 490 µM.

And the “self-cleavage kobs at 40 uM GlcN6P” value (glucosamine-6-phosphate [6])?
Its value is 0.000165 ± 2.1e-05 s⁻¹.

What about the “self-cleavage kobs at 160 uM GlcN6P” value (glucosamine-6-phosphate [7]) of the same variant?
Its value is 0.000444 ± 0.00011 s⁻¹.

And the “self-cleavage kobs at 640 uM GlcN6P” value (glucosamine-6-phosphate [2])?
Its value is 0.00207 ± 0.00034 s⁻¹.

What about the “self-cleavage kobs at 2500 uM GlcN6P” value (glucosamine-6-phosphate [3]) of the same variant?
Its value is 0.00434 ± 0.0016 s⁻¹.

And the “self-cleavage kobs at 10000 uM GlcN6P” value (glucosamine-6-phosphate [4])?
Its value is 0.00766 ± 0.0012 s⁻¹.

How did the kcat (glucosamine-6-phosphate [1]) turn out when G40C C71U was run?
Its kcat is 0.00477 ± 0.0015 s⁻¹.

And the KM (glucosamine-6-phosphate [5])?
The KM was 1730 ± 780 µM.

What about the “self-cleavage kobs at 40 uM GlcN6P” value (glucosamine-6-phosphate [6]) of the same variant?
Its value is 0.000198 ± 2.6e-05 s⁻¹.

And the “self-cleavage kobs at 160 uM GlcN6P” value (glucosamine-6-phosphate [7])?
Its value is 0.000335 ± 4.3e-05 s⁻¹.

And the “self-cleavage kobs at 640 uM GlcN6P” value (glucosamine-6-phosphate [2])?
Its value is 0.00124 ± 0.00014 s⁻¹.

What about the “self-cleavage kobs at 2500 uM GlcN6P” value (glucosamine-6-phosphate [3]) of the same variant?
The value was 0.00328 ± 0.00041 s⁻¹.

What about the “self-cleavage kobs at 10000 uM GlcN6P” value (glucosamine-6-phosphate [4]) of the same variant?
The value was 0.00384 ± 0.00053 s⁻¹.

With G7A G38A as the variant, how does the kcat (glucosamine-6-phosphate [1]) read?
The kcat was less than 1e-05 s⁻¹.

How did the kcat (glucosamine-6-phosphate [1]) turn out when U49A U69A was run?
The kcat was 5.14e-05 ± 1.9e-05 s⁻¹.

A15C U46A was tested. Which kcat (glucosamine-6-phosphate [1]) did it give?
The kcat was 0.000358 ± 0.00016 s⁻¹.

What about the “self-cleavage kobs at 640 uM GlcN6P” value (glucosamine-6-phosphate [2]) of the same variant?
The value was 0.000102 ± 2.1e-05 s⁻¹.

What about the “self-cleavage kobs at 2500 uM GlcN6P” value (glucosamine-6-phosphate [3]) of the same variant?
The value was 0.000152 ± 3.8e-05 s⁻¹.

And the “self-cleavage kobs at 10000 uM GlcN6P” value (glucosamine-6-phosphate [4])?
The value was 0.000416 ± 9.4e-05 s⁻¹.

How did the kcat (glucosamine-6-phosphate [1]) turn out when G29A U31G was run?
Its kcat is 0.000319 ± 2.2e-05 s⁻¹.

What about the KM (glucosamine-6-phosphate [5]) of the same variant?
The KM was 1380 ± 180 µM.

And the “self-cleavage kobs at 160 uM GlcN6P” value (glucosamine-6-phosphate [7])?
Its value is 3.63e-05 ± 1e-05 s⁻¹.

And the “self-cleavage kobs at 640 uM GlcN6P” value (glucosamine-6-phosphate [2])?
The value was 9.51e-05 ± 1.6e-05 s⁻¹.

And the “self-cleavage kobs at 2500 uM GlcN6P” value (glucosamine-6-phosphate [3])?
Its value is 0.000217 ± 3.4e-05 s⁻¹.

And the “self-cleavage kobs at 10000 uM GlcN6P” value (glucosamine-6-phosphate [4])?
The value was 0.000272 ± 5.4e-05 s⁻¹.

Which kcat (glucosamine-6-phosphate [1]) does the source give for U46C U57G here?
Its kcat is 1.4e-05 ± 2.4e-06 s⁻¹.

For G37C U47G, which kcat (glucosamine-6-phosphate [1]) is on record?
Its kcat is 1.63e-05 ± 2.9e-06 s⁻¹.
